Measurements taken from the supplement of paper PMC10724198.
± gives the standard deviation of the averaged measurements.

tested on: Saccharomyces cerevisiae; assay: protein stability index of tFT-peptide fusion (C-terminal peptide) (PSI (0-1 scale)); higher = more stable (slower turnover); settings: genetic background: wild type; temperature: 30 C
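Note: PSI is a weighted mean of sequencing reads over stability bins, variants kept only with over 10 reads, mCherry proximal and sfGFP distal, peptide attached via GGGS linker.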

Question: How did the protein stability index turn out when LLESTAHGKGIR was run?
Answer: The protein stability index was 0.683 ± 0.022.

Question: How did the protein stability index turn out when YFPFPPPLLSPP was run?
Answer: The protein stability index was 0.766 ± 0.02.

Question: FVLLGVRGGAGW was tested. Which protein stability index did it give?
Answer: Its protein stability index is 0.698 ± 0.021.

Question: With RVCKALKNDNLI as the sequence, how does the protein stability index read?
Answer: The protein stability index was 0.73 ± 0.07.

Question: With GRRRDREAVVPW as the sequence, how does the protein stability index read?
Answer: The protein stability index was 0.732 ± 0.032.

Question: How did the protein stability index turn out when AISVISNLTKLE was run?
Answer: Its protein stability index is 0.617 ± 0.034.

Question: With PPPLPTRPPPSA as the sequence, how does the protein stability index read?
Answer: Its protein stability index is 0.649 ± 0.0082.

Question: IPVGTVGTLNAA was tested. Which protein stability index did it give?
Answer: The protein stability index was 0.66 ± 0.057.

Question: With PPPRLVPSPPVP as the sequence, how does the protein stability index read?
Answer: Its protein stability index is 0.7 ± 0.0039.

Question: Which protein stability index does the source give for CSLTLPFFFGSL here?
Answer: The protein stability index was 0.6771 ± 0.0026.

Question: With SSPTSSAPPPFL as the sequence, how does the protein stability index read?
Answer: The protein stability index was 0.697 ± 0.022.

Question: With RASLTPSDHLFF as the sequence, how does the protein stability index read?
Answer: Its protein stability index is 0.766 ± 0.02.

Question: Which protein stability index does the source give for GCELVISCAHPV here?
Answer: Its protein stability index is 0.695 ± 0.063.

Question: For QSKANIVEEIWI, which protein stability index is on record?
Answer: The protein stability index was 0.688 ± 0.02.

Question: APAWSFFGLDKS was tested. Which protein stability index did it give?
Answer: The protein stability index was 0.702 ± 0.015.

Question: With EANEENNSSKRD as the sequence, how does the protein stability index read?
Answer: Its protein stability index is 0.686 ± 0.03.

Question: With RTCPSPSAHLRL as the sequence, how does the protein stability index read?
Answer: The protein stability index was 0.741 ± 0.0085.

Question: How did the protein stability index turn out when TTKTGQVEIYKV was run?
Answer: The protein stability index was 0.661 ± 0.033.

Question: How did the protein stability index turn out when PSPPLPRPLSPP was run?
Answer: Its protein stability index is 0.72 ± 0.045.

Question: AKRQRQQKKDKG was tested. Which protein stability index did it give?
Answer: The protein stability index was 0.626 ± 0.014.

Question: For VPGFARLFGLLD, which protein stability index is on record?
Answer: Its protein stability index is 0.737 ± 0.047.

Question: How did the protein stability index turn out when APNPPPPPPPLP was run?
Answer: Its protein stability index is 0.729 ± 0.03.

Question: With HSFNITSESQKI as the sequence, how does the protein stability index read?
Answer: Its protein stability index is 0.653 ± 0.0066.

Question: With RGRQRSDPPTRL as the sequence, how does the protein stability index read?
Answer: Its protein stability index is 0.717 ± 0.061.

Question: Which protein stability index does the source give for GEAVGRWSECRS here?
Answer: Its protein stability index is 0.664 ± 0.0091.

Question: For CRGLRRSLGSIL, which protein stability index is on record?
Answer: The protein stability index was 0.682 ± 0.063.

Question: For SPSAVPPALLYS, which protein stability index is on record?
Answer: The protein stability index was 0.747 ± 0.2.

Question: For RLSRPPRIPRSQ, which protein stability index is on record?
Answer: Its protein stability index is 0.654 ± 0.0087.

Question: With CTRTREDPKIGI as the sequence, how does the protein stability index read?
Answer: The protein stability index was 0.714 ± 0.024.

Question: For RLTLAFQKRSPP, which protein stability index is on record?
Answer: Its protein stability index is 0.668 ± 0.1.

Question: With LVHGWERPSRVR as the sequence, how does the protein stability index read?
Answer: Its protein stability index is 0.661 ± 0.021.

Question: SSRCRGYLFVDG was tested. Which protein stability index did it give?
Answer: The protein stability index was 0.738 ± 0.043.

Question: Which protein stability index does the source give for TMLLPPPNLATI here?
Answer: Its protein stability index is 0.71 ± 0.026.

Question: Which protein stability index does the source give for FAFLPYKGISSS here?
Answer: Its protein stability index is 0.682 ± 0.05.

Question: How did the protein stability index turn out when FFWGVFFLGLGW was run?
Answer: Its protein stability index is 0.566 ± 0.071.

Question: Which protein stability index does the source give for LRLLCVSGSSVR here?
Answer: The protein stability index was 0.638 ± 0.065.

Question: For LPLLALPLALHP, which protein stability index is on record?
Answer: Its protein stability index is 0.653 ± 0.0077.

Question: For APRKTPPHPPPS, which protein stability index is on record?
Answer: Its protein stability index is 0.689 ± 0.06.

Question: How did the protein stability index turn out when LQRHSSQQTTSA was run?
Answer: The protein stability index was 0.658 ± 0.025.

Question: For NYSKPSYLVRAK, which protein stability index is on record?
Answer: The protein stability index was 0.697 ± 0.053.

Question: For RASPTTILCKRQ, which protein stability index is on record?
Answer: Its protein stability index is 0.678 ± 0.025.

Question: With RAGVRWGGGGGG as the sequence, how does the protein stability index read?
Answer: The protein stability index was 0.67 ± 0.014.

Question: With PPHPLSLSLRPP as the sequence, how does the protein stability index read?
Answer: Its protein stability index is 0.634 ± 0.034.

Question: With LFFLLCHVGSFR as the sequence, how does the protein stability index read?
Answer: Its protein stability index is 0.516 ± 0.0085.

Question: SLPPPPSPVSLF was tested. Which protein stability index did it give?
Answer: The protein stability index was 0.611 ± 0.07.

Question: How did the protein stability index turn out when GREGQGRGGQQG was run?
Answer: Its protein stability index is 0.629 ± 0.05.

Question: With TALKNLPSVSSV as the sequence, how does the protein stability index read?
Answer: The protein stability index was 0.712 ± 0.1.

Question: How did the protein stability index turn out when FPFFSSIPPRVV was run?
Answer: The protein stability index was 0.574 ± 0.069.

Question: With TSYNLPAAPHPV as the sequence, how does the protein stability index read?
Answer: Its protein stability index is 0.679 ± 0.037.

Question: REGKIVNNKNEN was tested. Which protein stability index did it give?
Answer: Its protein stability index is 0.687 ± 0.077.

Question: How did the protein stability index turn out when CFWSVIGVQFEV was run?
Answer: The protein stability index was 0.629 ± 0.0095.

Question: How did the protein stability index turn out when IKNIKKKKSKTE was run?
Answer: Its protein stability index is 0.702 ± 0.065.

Question: Which protein stability index does the source give for PPSLVSPSSPPS here?
Answer: Its protein stability index is 0.708 ± 0.047.

Question: LELTTIRHNHEL was tested. Which protein stability index did it give?
Answer: The protein stability index was 0.695 ± 0.029.

Question: With PHSPPRPLPPPL as the sequence, how does the protein stability index read?
Answer: Its protein stability index is 0.703 ± 0.047.

Question: PPPPNPPRPSSR was tested. Which protein stability index did it give?
Answer: The protein stability index was 0.758 ± 0.026.

Question: Which protein stability index does the source give for VCFVGSCFKLVL here?
Answer: Its protein stability index is 0.6324 ± 0.0032.

Question: MIVSILRSRSFS was tested. Which protein stability index did it give?
Answer: Its protein stability index is 0.557 ± 0.0066.

Question: Which protein stability index does the source give for SPPVTASLCLFS here?
Answer: Its protein stability index is 0.692 ± 0.016.

Question: For EAEEVGRVVLKG, which protein stability index is on record?
Answer: Its protein stability index is 0.643 ± 0.067.

Question: Which protein stability index does the source give for SSPFPPLTTPSP here?
Answer: Its protein stability index is 0.7245 ± 0.0044.

Question: DSPRSLALFRSC was tested. Which protein stability index did it give?
Answer: Its protein stability index is 0.642 ± 0.028.

Question: With ASRSGVPGVRVG as the sequence, how does the protein stability index read?
Answer: The protein stability index was 0.685 ± 0.027.

Question: Which protein stability index does the source give for QIISSVFEATSY here?
Answer: The protein stability index was 0.606 ± 0.037.

Question: For RRVRTTKKGLTI, which protein stability index is on record?
Answer: Its protein stability index is 0.7266 ± 0.0036.

Question: IWGGAVQARFKG was tested. Which protein stability index did it give?
Answer: The protein stability index was 0.733 ± 0.14.

Question: For LPPPRPGLPFTF, which protein stability index is on record?
Answer: The protein stability index was 0.704 ± 0.057.

Question: Which protein stability index does the source give for LAALVGGNRGRG here?
Answer: Its protein stability index is 0.704 ± 0.081.

Question: DACIVRFRDTYL was tested. Which protein stability index did it give?
Answer: Its protein stability index is 0.688 ± 0.018.

Question: With LSIGGDLLFLRE as the sequence, how does the protein stability index read?
Answer: The protein stability index was 0.716 ± 0.067.

Question: With PSPTTSRFAPPP as the sequence, how does the protein stability index read?
Answer: Its protein stability index is 0.53 ± 0.047.

Question: For FLFGLGEIDGVR, which protein stability index is on record?
Answer: The protein stability index was 0.84 ± 0.034.

Question: With RLLVGFLSPFSC as the sequence, how does the protein stability index read?
Answer: Its protein stability index is 0.713 ± 0.031.

Question: How did the protein stability index turn out when IGLCGWVSGAAT was run?
Answer: The protein stability index was 0.7274 ± 0.0069.

Question: With GRQVTSTLTKLL as the sequence, how does the protein stability index read?
Answer: Its protein stability index is 0.617 ± 0.18.

Question: For VSFNPAGYKSRN, which protein stability index is on record?
Answer: Its protein stability index is 0.671 ± 0.042.

Question: How did the protein stability index turn out when AWECCFLGRSGV was run?
Answer: Its protein stability index is 0.846 ± 0.075.

Question: Which protein stability index does the source give for GGRVWGAVGAGP here?
Answer: The protein stability index was 0.627 ± 0.082.

Question: SVLVHSFRSVNV was tested. Which protein stability index did it give?
Answer: The protein stability index was 0.66 ± 0.002.

Question: For VNGLVLFEYLMV, which protein stability index is on record?
Answer: Its protein stability index is 0.579 ± 0.029.

Question: For RLLRLLTALPPL, which protein stability index is on record?
Answer: Its protein stability index is 0.6387 ± 0.0026.

Question: Which protein stability index does the source give for PPPPLPPPSHYP here?
Answer: Its protein stability index is 0.728 ± 0.033.

Question: For KCPPQKRPTLIQ, which protein stability index is on record?
Answer: Its protein stability index is 0.679 ± 0.098.

Question: Which protein stability index does the source give for RIAARAIISRGG here?
Answer: Its protein stability index is 0.657 ± 0.021.

Question: With SLGSTHRWPPVV as the sequence, how does the protein stability index read?
Answer: The protein stability index was 0.6272 ± 0.0019.

Question: ADENFKVRKRRS was tested. Which protein stability index did it give?
Answer: Its protein stability index is 0.703 ± 0.057.

Question: With PPPPASARPSLP as the sequence, how does the protein stability index read?
Answer: Its protein stability index is 0.477 ± 0.069.

Question: Which protein stability index does the source give for PSVPLLPPAPLS here?
Answer: Its protein stability index is 0.784 ± 0.075.

Question: How did the protein stability index turn out when HRCQRGLIARPR was run?
Answer: Its protein stability index is 0.665 ± 0.016.

Question: With PVEAPVGLVCAK as the sequence, how does the protein stability index read?
Answer: Its protein stability index is 0.568 ± 0.011.

Question: Which protein stability index does the source give for RWLEIQKRRGRI here?
Answer: The protein stability index was 0.643 ± 0.1.

Question: Which protein stability index does the source give for HKKATRPPTGGN here?
Answer: The protein stability index was 0.604 ± 0.052.

Question: How did the protein stability index turn out when GVLHPPARPPPL was run?
Answer: Its protein stability index is 0.654 ± 0.024.

Question: How did the protein stability index turn out when LRGVAIAARYPR was run?
Answer: Its protein stability index is 0.766 ± 0.02.

Question: For TQEQVQKKLLKS, which protein stability index is on record?
Answer: The protein stability index was 0.665 ± 0.015.

Question: How did the protein stability index turn out when EMYLKTPVDRKL was run?
Answer: The protein stability index was 0.678 ± 0.038.

Question: LASREFGVFCIW was tested. Which protein stability index did it give?
Answer: The protein stability index was 0.648 ± 0.057.

Question: With TRGRGDGQLDSA as the sequence, how does the protein stability index read?
Answer: The protein stability index was 0.699 ± 0.024.

Question: With RCETHKDHESNE as the sequence, how does the protein stability index read?
Answer: The protein stability index was 0.725 ± 0.014.

Question: PAHPHPYHPSLH was tested. Which protein stability index did it give?
Answer: Its protein stability index is 0.6265 ± 0.0042.

Question: How did the protein stability index turn out when PPRYDSLFGALF was run?
Answer: Its protein stability index is 0.676 ± 0.066.
